Assay results as given in patent US7169889B1, “Insulin prodrugs hydrolyzable in vivo to yield peglylated insulin” (priority 1999, dated 2007).
Like-named read-outs stand apart in the source and are kept apart here.

Experiments:
[1] = system: male CF-1 mice; assay: Mouse blood glucose assay (potency evaluation); format: in vivo; conditions: for Potency: subcutaneous injection, blood glucose 30 minutes post-dose, calculated relative to bovine insulin standard curve
Experimental: Six paired dose groups of 5 male CF-1 mice (˜25 g unfasted) received subcutaneous injections of either bovine insulin or modified insulin. Pre- and post-experimental baselines were established with two vehicle groups. An additional 25 μg/kg insulin dose group served as the internal control. Mice were terminally bled 30 minutes post-dose and blood glucose was measured with a glucometer (ONE TOUCH®). The biological potency of the modified insulin was then calculated relative to a bovine insulin standard curve.

[2] = system: pancreatectomized dogs; assay: Oral activity in pancreatectomized diabetic dogs (plasma glucose and insulin); format: in vivo; conditions: for Dmax: microemulsion, N = 2
Experimental: Two dogs were used for each compound. Compounds are formulated in water in oil microemulsion and evaluated at a dose of 1-2 mg/kg. Twenty milliliters of the formulation was administered orally to each dog and the formulations were chased with 20 ml of water. Plasma glucose and insulin levels were monitored at different time intervals.

[3] = system: male CF-1 mice; conditions: bovine insulin standard; assumed potency used for calculations; cited from earlier work

Insulin PEG3 Methyl Ether: insulin mono-conjugated with methyl triethylene glycol
in vivo biological activity (potency assay), in words ([1]; mouse blood glucose assay, Table 2): best result | Potency [1]: 43.6 IU/mg

Insulin PEG9 Stearate: insulin mono-conjugated with hydrolyzable PEG9 stearate ester oligomer
Potency [1]: 15.3 IU/mg

Galactosamine-PEG14-insulin conjugate
Dmax ([2]; oral, dose 2 mg/kg): 52%

Insulin PEG9 Oleate: insulin mono-conjugated with hydrolyzable PEG9 oleate ester oligomer
Potency [1]: 19.0 IU/mg

Bovine insulin: bovine insulin standard, assumed potency 27.5 IU/mg
Potency [3]: 27.5 IU/mg

PEG3-insulin: methyl triethylene glycol insulin conjugates formulated in microemulsion
Cmax ([2]; dog, in vivo, po, 2 mg/kg): 181 μU/ml | glucose reduction, in words ([2]; oral, formulated in microemulsion, pancreatectomized dogs): good glucose reduction | Dmax ([2]; oral, dose 2 mg/kg): 62%

Insulin PEG10 Oleyl Ether: nonhydrolyzable insulin mono-conjugate with PEG10 oleyl ether oligomer
Potency [1]: 0.0 IU/mg

Insulin PEG9 Hexanoate: insulin mono-conjugated with hydrolyzable PEG9 hexanoate ester oligomer
Potency [1]: 21.3 IU/mg

PEG3-oleate-insulin conjugate: insulin conjugated with hydrolyzable triethylene glycol oleate oligomer, in microemulsion
Dmax ([2]; oral, dose 1 mg/kg): 49%
